Source: patent US20230212266A1 (FRED HUTCHINSON CANCER CENTER, published 2023)
Substitutions are numbered along the chain they refer to. Where two headings read alike, the source gives them in different places.

Legend:
Assay in all cases: BLI, mAb on anti-human Fc probe, antigen in solution
[1] = target: T1, SARS-CoV-2 receptor binding domain (RBD) (SARS-CoV-2, UniProt P0DTC2 319-591)
[2] = target: T1, SARS-CoV-2 receptor binding domain (RBD); remark: listed apart in the source
[3] = target: T1, SARS-CoV-2 receptor binding domain (RBD); remark: listed apart in the source
[4] = target: T1, SARS-CoV-2 receptor binding domain (RBD); remark: listed apart in the source
[5] = target: T1, SARS-CoV-2 receptor binding domain (RBD); remark: listed apart in the source
[6] = target: T1, SARS-CoV-2 receptor binding domain (RBD); remark: listed apart in the source
[7] = target: T1, SARS-CoV-2 receptor binding domain (RBD); remark: listed apart in the source
[8] = target: T1, SARS-CoV-2 receptor binding domain (RBD); remark: listed apart in the source
[9] = target: T1, SARS-CoV-2 receptor binding domain (RBD); remark: listed apart in the source
[10] = target: T1, SARS-CoV-2 receptor binding domain (RBD); remark: listed apart in the source
[11] = target: T1, SARS-CoV-2 receptor binding domain (RBD); remark: listed apart in the source
[12] = target: T1, SARS-CoV-2 receptor binding domain (RBD); remark: listed apart in the source
[13] = target: T1, SARS-CoV-2 receptor binding domain (RBD); remark: listed apart in the source
[14] = target: T1, SARS-CoV-2 receptor binding domain (RBD); remark: listed apart in the source
[15] = target: T1, SARS-CoV-2 receptor binding domain (RBD); remark: listed apart in the source
[16] = target: T1, SARS-CoV-2 receptor binding domain (RBD); remark: listed apart in the source
[17] = target: T1, SARS-CoV-2 receptor binding domain (RBD); remark: listed apart in the source

B1: CV2-24 (antibody, V domains shown)
VH: EVQLVESGGGLVKPGGSLRLSCAASGFTFSSYSMNWVRQAPGKGLEWVSSISSTSNYIYYADSVKGRFTISRDNAKNSLYLQMNSLRAEDTAVYYCARVSPNYDFWSGYYPDAFDIWGQGTMVTVSS
VL: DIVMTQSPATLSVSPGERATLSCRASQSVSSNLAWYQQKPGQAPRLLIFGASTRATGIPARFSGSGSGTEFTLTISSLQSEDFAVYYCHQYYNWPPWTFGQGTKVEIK
notes: expressed as IgG
- binding result [1]: no binding

B2: CV2-42 (antibody, V domains shown)
VH: QVQLVQSGAEVKKPGASVKVSCKASGYTFTSYGISWVRQAPGQGLEWMGWISAYNGNTNYAQKLQGRVTMTTDTSTSTAYMELRSLRSDDTAVYYCARDRRGSGWSWDYYYYGMDVWGQGTTVTVSS
VL: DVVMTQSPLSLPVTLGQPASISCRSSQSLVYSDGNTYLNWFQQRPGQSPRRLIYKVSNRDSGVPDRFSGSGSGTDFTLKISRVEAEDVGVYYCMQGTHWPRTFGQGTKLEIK
notes: expressed as IgG
- binding result [2]: no binding

B3: CV2-25 (antibody, V domains shown)
VH: EVQLVQSGAEVKKPGESLRISCKGSGYSFTSYWISWVRQMPGKGLEWMGKIDPSDSYTNYSPSFQGHVTISADKSISTAYLQWSSLKASDTAMYYCARQFGGELLGWFDPWGQGTLVTVSS
VL: DIQMTQSPSSLSASVGDRVTITCRASQGISNYLAWYQQKPGKVPKLLIYAASTLQSGVPSRFSGSGSGTDFTLTISSLQPEDVATYYCQKYNSAPFTFGPGTKVDIK
notes: expressed as IgG
- binding result [3]: no binding

B4: CV2-39 (antibody, V domains shown)
VH: EVQLVESGGGLVQPGGSLRLSCSASGFTFSSYAMHWVRQAPGKGLEYVSGISSNGGSTYYADSVKGRITISRDNSKKTLYLQMSSLRAEDTAVYYCVKSSSRGYYWGQGTLVTVSS
VL: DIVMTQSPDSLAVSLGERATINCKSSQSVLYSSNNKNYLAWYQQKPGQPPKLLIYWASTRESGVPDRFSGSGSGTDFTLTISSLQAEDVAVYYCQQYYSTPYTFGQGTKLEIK
notes: expressed as IgG
- binding result [4]: no binding

B5: CV2-29 (antibody, V domains shown)
VH: QVQLVESGGGVVQPGRSLRLSCAASGFTFSTYAMHWVRQAPGKGLEWVAVISYDGSNKYYADSVKGRFTISRDNSKNTLYLQMNSLRAEDTAVYYCARAYGGSYFYGMDVWGQGTTVTVSS
VL: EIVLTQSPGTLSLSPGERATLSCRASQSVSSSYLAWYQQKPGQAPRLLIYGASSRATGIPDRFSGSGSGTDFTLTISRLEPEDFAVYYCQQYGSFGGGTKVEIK
notes: expressed as IgG
- binding result [5]: no binding

B6: CV2-32 (antibody, V domains shown)
VH: EVQLVESGGGLVQPGRSLRLSCTASGFTFGDYAMSWFRQAPGKGLEWVGFIRSKAYGGTTEYAASVKGRFTISRDDSKSIAYLQMNSLKTEDTAVYYCTMVWQQLHDAFDIWGQGTMVTVSS
VL: SYELTQPPSVSVSPGQTARITCSGDALPKQYAYWYQQKPGQAPVLVIYKDSERPSGIPERFSGSSSGTTVTLTISGVQAEDEADYYCQSADSSGTYSWVFGGGTKLTVL
notes: expressed as IgG
- binding result [6]: no binding

B7: CV2-26 (antibody, V domains shown)
VH: QVQLVESGGGVVQPGRSLRLSCAAAGFIFSSYAMNWVRQAPGKGLEWVAVISYDGSNKYYADSVKGRFTISRDNSKNTLNLQMNSLRAEDTAVYYCARGNGYIIIDYWGQGTLVTVSS
VL: QLVLTQSPSASASLGASVKLTCTLSSGHSSYAIAWHQQQPEKGPRYLMKFNSDGTHSKGDGIPDRFSGSSSGAERSLTISSLQSEDEADYYCQTWGTGGVFGGGTKLTVL
notes: expressed as IgG
- binding result [7]: no binding

B8: CV2-34 (antibody, V domains shown)
VH: QVQLVESGGGVVQPGRSLRLSCAASRFTFSTYAMHWVRQAPGKGLEWVTVISYDGDNKYYADSVKGRFTISRDNSKNTLYLQMNSLRTEDTAVYYCTRAGSGSYLSYFDYWGQGTLVTVSS
VL: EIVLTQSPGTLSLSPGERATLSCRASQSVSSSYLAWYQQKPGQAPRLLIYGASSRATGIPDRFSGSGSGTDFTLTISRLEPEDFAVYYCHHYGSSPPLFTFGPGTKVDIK
notes: expressed as IgG
- binding result [8]: no binding

B9: CV2-35 (antibody, V domains shown)
VH: EVQLVESGGGLVQPGGSLRLSCAASGFTFSNCWMSWVRQAPGKGLEWVANIKQDGSEKYYVDSVKGRFTISRDNAKNSLYLQMNSLRAEDTAVYYCARMGNTAWYFDLWGRGTLVTVSS
VL: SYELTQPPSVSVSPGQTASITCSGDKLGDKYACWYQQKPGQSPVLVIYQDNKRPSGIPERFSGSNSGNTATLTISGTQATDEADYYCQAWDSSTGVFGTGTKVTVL
notes: expressed as IgG
- binding result [9]: no binding

B10: CV2-27 (antibody, V domains shown)
VH: QLQLQESGPGLVKPSETLSLTCTVSGGSISSSSYYWGWIRQPPGKGLEFIGSIYYSGSTYYNPSLKSRVTISVDTSKNQFSLKLSSVTAADTAVYYCATQEVVLVRPYNYNGMDVWGQGTTVTVSS
VL: QSALTQPASVSGSPGQSITLSCTGTSSDVGGYNYVSWYQQHPGKAPKLMIYEVSNRPSGVSNRFSGSKSGNTASLTISGLQAEDEADYYCSSYTSISTLVFGTGTKVTVL
notes: expressed as IgG
- binding result [10]: no binding

B11: CV2-38 (antibody, V domains shown)
VH: QVQLVQSGAEVKKPGSSVKVSCKASGGTFSSYAISWVRQAPGQGLEWMGGIIPIFGTANYAQKFQGRVTITADESTSTAYMELSSLRSEDTAVYYCASARFITMVRGVINIYYYGMDVWGQGTTVTVSS
VL: B10 VL with L20I, I96S, V100L, T103G, V107L, T108R, V109S, L110C
notes: expressed as IgG
- binding result [11]: no binding

B12: CV9 (antibody, V domains shown)
VH: QLQLQESGPGLVKPSETLSLTCTVSGGSISSSSYYWGWIRQPPGKGLEWIGSIYYSGSTYYNPSLKSRVTISVDTSKNQFSLKLSSVTAADTAVYYCATHIVVVTATPNWYFDLWGRGTLVTVSS
VL: B10 VL with L20I, E52D, L99W, T103G, V107L
notes: expressed as IgG
- binding result [12]: no binding

B13: CV2-30 (antibody, V domains shown)
VH: QVQLVQSGAEVKKPGSSVKVSCKASGGTFSSYAITWVRQAPGQGLEWMGGIIPIFGTANYAQKFQGRVTITADESTNTAYMELSSLTSEDTAVYYCAKIGDYDSSGYYFDYWAQGTLVTVSS
VL: EIVLTQSPATLSLSPGERATLSCRASQSVSSFLAWYQQKPGQAPRLLIYDASNRATGIPARFSGSGSGTDFTLTISSLEPEDFAVYYCQQRSNWPPSITFGQGTRLEIK
notes: expressed as IgG
- binding result [13]: no binding

B14: CV2-33 (antibody, V domains shown)
VH: QVQLVQSGAEVKKPGSSVKVSCKASGGTFSSYAISWVRQAPGQGLEWMGGIIPIFGTANYAQKFQGRVTITADESTSTAYMELSSLRSEDTAVYYCARISSYDSSGYSMDVWGQGTTVTVSS
VL: B13 VL with F32Y, S97R, I98V, Q102P, R105K, L106V, E107D
notes: expressed as IgG
- binding result [14]: no binding

B15: CV2-40 (antibody, V domains shown)
VH: QVQLVESGGGLVKPGGSLRLSCAASGFTFSDYYMSWIRQAPGKGLEWVSYISSRSSYTNYADSVKGRFTISRDNAKNSLYLQMNSLRAEDTAVYYCARGYDSSGYHYSLWGQGTLVTVSS
VL: QSALTQPASVSGSPGQSITISCTGTSSDVGGYNYVSWYQQHPGKAPKLMIYEVSNRPSGVSNRFSGSKSGNTASLTISGLQAEDEADYYCSSYTNSRTLDVVFGGGTKLTVL
notes: expressed as IgG
- binding result [15]: no binding

B16: CV2-37 (antibody, V domains shown)
VH: QVQLVQSGAEVKKPGASVKVSCRASGYTFTNFGISWVRQAPGLGLEWMGWISTYNGNTNYAQKLQGRVTMTTDTSTSTAYMELRSLRSDDTAVYYCARASGPYLLGLYWGQGTLVTVSS
VL: QSVLTQPPSVSGAPGQRVTISCTGSSSNIGAGYDVHWYQQLPGTAPKLLIYGNSNRPSGVPDRFSGSKSGTSASLAITGLQAEDEADYYCQSYDSSLSDVVFGGGTKLTVL
notes: expressed as IgG
- binding result [16]: no binding

B17: CV2-28 (antibody, V domains shown)
VH: QLQLQESGPGLVKPSETLSLTCTVSGGSVSSNAYYWGWIRQPPGKGLEWIGSVNYRGSTYYIPTLKSRITISVNTSKNQFSLKLTSVTAADTAVYYCARRGVALVTITYFDFWGQGALVTVSS
VL: QSVLTQPPSVSGAPGQRVTITCTGSSSNIGSGYDVHWYQQLPGTAPKLLIYGNTNRPSGVPDRFSGSKSGTSASLAITGLQAEDEAHYYCQSYDSSVVFGGGTKLTVL
notes: expressed as IgG
- binding result [17]: no binding
